In patent publication US20260325667 (published 2026):

T1: Human Tissue Factor (human)
T1 chain: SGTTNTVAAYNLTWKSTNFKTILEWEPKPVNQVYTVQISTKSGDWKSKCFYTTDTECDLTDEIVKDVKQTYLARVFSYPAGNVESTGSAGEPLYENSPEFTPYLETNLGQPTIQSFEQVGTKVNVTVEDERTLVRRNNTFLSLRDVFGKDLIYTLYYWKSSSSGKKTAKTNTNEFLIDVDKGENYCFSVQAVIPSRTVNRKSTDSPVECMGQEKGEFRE

T2: Cynomolgus Tissue Factor (cynomolgus)
T2 chain: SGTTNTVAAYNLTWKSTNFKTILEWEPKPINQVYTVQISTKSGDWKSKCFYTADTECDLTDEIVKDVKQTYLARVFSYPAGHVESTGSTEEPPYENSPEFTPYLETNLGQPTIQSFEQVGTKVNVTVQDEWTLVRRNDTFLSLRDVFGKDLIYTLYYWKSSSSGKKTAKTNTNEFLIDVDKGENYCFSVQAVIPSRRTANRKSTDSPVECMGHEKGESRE

T3: Mouse Tissue Factor (mouse)
T3 chain: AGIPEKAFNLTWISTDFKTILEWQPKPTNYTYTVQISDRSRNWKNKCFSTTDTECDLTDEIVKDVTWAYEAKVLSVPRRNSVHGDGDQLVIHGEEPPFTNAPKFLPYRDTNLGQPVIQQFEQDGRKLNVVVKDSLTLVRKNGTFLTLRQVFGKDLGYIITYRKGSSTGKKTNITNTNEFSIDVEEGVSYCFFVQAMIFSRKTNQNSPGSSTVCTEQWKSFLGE


Assays:
Human Tissue Factor [1] = molecular target: T1, Human Tissue Factor; test: BLI, batch 2
Cynomolgus Tissue Factor [2] = molecular target: T2, Cynomolgus Tissue Factor; test: BLI, batch 1
Human Tissue Factor [3] = molecular target: T1, Human Tissue Factor; test: BLI, batch 1
Mouse Tissue Factor [4] = molecular target: T3, Mouse Tissue Factor; test: BLI, batch 1
Cynomolgus Tissue Factor [5] = molecular target: T2, Cynomolgus Tissue Factor; test: BLI, batch 2
Mouse Tissue Factor [6] = molecular target: T3, Mouse Tissue Factor; test: BLI, batch 2
Cynomolgus Tissue Factor [7] = molecular target: T2, Cynomolgus Tissue Factor; test: BLI
Human Tissue Factor [8] = molecular target: T1, Human Tissue Factor; test: BLI
Mouse Tissue Factor [9] = molecular target: T3, Mouse Tissue Factor; test: BLI

Row | Binder | Kd (Human Tissue Factor [1]) | Kd (Cynomolgus Tissue Factor [2]) | Kd (Human Tissue Factor [3]) | Kd (Mouse Tissue Factor [4]) | Kd (Cynomolgus Tissue Factor [5]) | Kd (Mouse Tissue Factor [6]) | Kd (Cynomolgus Tissue Factor [7]) | Kd (Human Tissue Factor [8]) | Kd (Mouse Tissue Factor [9])
1 | EXMA-006 (antibody, unconjugated TF antibody; representative batches 1 and 2) chain 1: QVQLVQSGAEVKKPGASVKVSCKASGYTFDVYGISWVRQAPGQGLEWMGWIAPYSGNTNYAQKLQGRVTMTTDTSTSTAYMELRSLRSDDTAVYYCARDAGTYSPFGYGMDVWGQGTTVTVSS chain 2: DIQMTQSPSTLSASVGDRVTITCQASQSINNWLAWYQQKPGKAPKLLIYKAYNLESGVPSRFSGSGSGTEFTLTISSLQPDDFATYYCQLFQSLPPFTFGGGTKVEIK | 36 µM | 0.000673 µM | 0.00113 µM | 0.107 µM | 240 µM | 2000 µM | – | – | –
2 | TF-ADC 6-8 (antibody, ADC, linker-payload conjugated at fGly' in CH1 and C-terminus, DAR about 8) chain 1: not shown chain 2: DIQMTQSPSTLSASVGDRVTITCQASQSINNWLAWYQQKPGKAPKLLIYKAYNLESGVPSRFSGSGSGTEFTLTISSLQPDDFATYYCQLFQSLPPFTFGGGTKVEIKRTVAAPSVFIFPPSDEQLKSGTASVVCLLNNFYPREAKVQWKVDNALQSGNSQESVTEQDSKDSTYSLSSTLTLSKADYEKHKVYACEVTHQGLSSPVTKSFNRGEC | – | – | – | – | – | – | 19 µM | 7.1 µM | 210 µM
